US20030109691A1 (GENERAL HOSPITAL, published 2003)

Molecular target: T1, CD54 (ICAM-1) (UniProt P05362 28-480, limits assumed)
T1 construct: Amine-coupled to a CM5 chip for SPR
Assay: ELISA, CD11a A domain on ICAM-1

T1 sequence (P05362 28-480 limits assumed): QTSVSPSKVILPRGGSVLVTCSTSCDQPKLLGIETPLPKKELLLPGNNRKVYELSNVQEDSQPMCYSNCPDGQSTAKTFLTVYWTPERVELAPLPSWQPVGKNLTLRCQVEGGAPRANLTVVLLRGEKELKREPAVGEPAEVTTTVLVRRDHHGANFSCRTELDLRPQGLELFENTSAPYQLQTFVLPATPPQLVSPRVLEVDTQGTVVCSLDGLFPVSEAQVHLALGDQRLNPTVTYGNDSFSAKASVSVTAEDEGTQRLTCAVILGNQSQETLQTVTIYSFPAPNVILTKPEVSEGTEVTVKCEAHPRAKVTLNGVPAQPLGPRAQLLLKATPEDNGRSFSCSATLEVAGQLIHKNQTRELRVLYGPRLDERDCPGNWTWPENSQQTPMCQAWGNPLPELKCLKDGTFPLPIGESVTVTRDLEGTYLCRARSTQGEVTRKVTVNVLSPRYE

B1: wild-type CD11a A domain (receptor, human, UniProt P20701 150-333, looked up)
chain: CIKGNVDLVFLFDGSMSLQPDEFQKILDFMKDVMKKLSNTSYQFAAVQFSTSYKTEFDFSDYVKRKDPDALLKHVKHMLLLTNTFGAINYVATEVFREELGARPDATKVLIIITDGEATDSGNIDAAKDIIRYIIGIGKHFQTKESQETLHKFASKPASEFVKILDTFEKLKDLFTELQKKIYV
notes: domain: A domain; also called wild-type protein without this substitution
  binding result: no binding
